Source: paper PMC8786865 (Nature Communications, 2022)
Residue numbers refer to the chain shown, from its start. Where two headings read alike, the source gives them in different places.

Tests used:
[1] = target: T1, SARS-CoV-2 spike receptor-binding domain (RBD) (SARS-CoV-2, Wuhan-Hu-1, UniProt P0DTC2); test: SPR; array SPR (Carterra LSA), HC200M chip; IgG captured on immobilised anti-human Fc; antigen as analyte in a 7-point series, RBD 300 nM to 411 pM or trimer 100 nM to 137 pM, in 1x HBSTE with 0.5 mg/mL BSA; association 5 min, dissociation 11 min; one-site model; constants for the trimer are called avidities; settings: both partners purified
T1 construct: also called SARS-CoV-2 RBD

[2] = target: T1, SARS-CoV-2 spike receptor-binding …

B1: selected anti-SARS-CoV-2 spike antibody G2 (antibody, V domains shown)
VH: QVQLVQSGAEVKKPGASVKVSCKVSGYTFTANAIHWVRQAPGKGLEWMGGIGPGQGDTIYAQKFQGRVTMTEDTSTDTAYMELSSLKSEDTAVYYCARDGHCSGGSCPSGMDVWGQGTTVTVSS
VL: DIQMTQSPSSVSASVGDRVTITCRASQDIGNHLAWYQQKPGKAPKLLIYGASIRESGVPSRFSGSGSGTDFTLTISSLQPEDFANYYCQQYSAFPWTFGGGTKVEIK
binding result [1]: binds

B2: selected anti-SARS-CoV-2 spike antibody C1 (antibody, V domains shown)
VH: EVQLVQSGAEVKKPGASVKVSCKVSGYSFTDHSIHWVRQAPGKGLEWMGGISTQRGDTIYAQKFQGRVTMTEDTSTDTAYMELSSLKSEDTAVYYCARDGYYGSGTYYYYGMDVWGQGTTVTVSS
VL: DIQMTQSPSSVSASVGDRVTITCRASQSIGSFLAWYQQKPGKAPKLLIYGESNRATGVPSRFSGSGSGTDFTLTISSLQPEDFANYYCQQYNRYPWAFGGGTKVEIK
binding result [1]: binds

B3: selected anti-SARS-CoV-2 spike antibody B2 (antibody, V domains shown)
VH: B2 VH with E1Q, S52N, T53P, Q54Y, R55T, G100A, Y102S, G105Y, T106P
VL: B1 VL with Q27E, D28G, G30S, H32Y, A51T, I53D, E55A, V58I
binding result [1]: binds

B4: E5 (antibody, V domains shown)
VH: EVQLVQSGAEVKKPGASVKVSCKVSGYSFTDHSIHWVRQAPGKGLEWMGGINPYTGDTIYAQKFQGRVTMTEDTSTDTAYMELSSLKSEDTAVYYCAKDGWGSLLNGIAVAGLDYWGQGTLVTVSS
VL: DIQMTQSPSSVSASVGDRVTITCRASQDISTYLAWYQQKPGKAPKLLIYASSNLASGVPSRFSGSGSGTDFTLTISSLQPEDFANYYCHQYATYPWGFGGGTKVEIK
binding result [2]: binds

B5: selected anti-SARS-CoV-2 spike antibody D2 (antibody, V domains shown)
VH: QVQLVQSGAEVKKPGASVKVSCKVSGYSFTDHSIHWVRQAPGKGLEWMGGINPYTGDTIYAQKFQGRVTMTEDTSTDTAYMELSSLKSEDTAVYYCARDARLLDYWGQGAQVTVSS
VL: B4 VL with Q27R, D28S, S30G, T31N, Y32H, G97T
binding result [1]: binds

B6: selected anti-SARS-CoV-2 spike antibody C7 (antibody, V domains shown)
VH: QVQLVQSGAEVKKPGASVKVSCKVSGYSFTNYAIHWVRQAPGKGLEWMGGITPYNADTIYAQKFQGRVTMTEDTSTDTAYMELSSLKSEDTAVYYCARDGGNWAAPYSMDVWGNGTLVTVSS
VL: B4 VL with Q27H, D28G, T31S, A50D, S51A, S52T, N53I, L54R, S56T, G97T
binding result [1]: binds

B7: selected anti-SARS-CoV-2 spike antibody F5 (antibody, V domains shown)
VH: EVQLVQSGAEVKKPGASVKVSCKVSGYTFSNHAIHWVRQAPGKGLEWMGGINPNIGDTIYAQKFQGRVTMTEDTSTDTAYMELSSLKSEDTAVYYCARDGYSGYVEGMDVWGQGTTVTVSS
VL: B4 VL with D28N, S30H, T31S, A50D, S51T, N53K, A55Q, T93A, G97T
binding result [1]: binds

B8: selected anti-SARS-CoV-2 spike antibody A11 (antibody, V domains shown)
VH: QVQLVQSGAEVKKPGASVKVSCKVSGYSFTDHSIHWVRQAPGKGLEWMGGINPYTGDTIYAQKFQGRVTMTEDTSTDTAYMELSSLKSEDTAVYYCARDGYSYGYLSGMDVWGQGTTVTVSS
VL: B4 VL with S30G, T31N, Y32H, G97T
binding result [1]: binds

B9: selected anti-SARS-CoV-2 spike antibody F1 (antibody, V domains shown)
VH: EVQLVQSGAEVKKPGASVKVSCKVSGYPFTSYAIHWVRQAPGKGLEWMGGITPYNADTIYAQKFQGRVTMTEDTSTDTAYMELSSLKSEDTAVYYCARDGYSSGYYGMDVWGQGTTVTVSS
VL: B4 VL with S30G, T31N, Y32H, G97T
binding result [1]: binds

B10: selected anti-SARS-CoV-2 spike antibody A12 (antibody, V domains shown)
VH: B4 VH with K98R
VL: B4 VL with S30G, T31N, Y32H, G97T
binding result [1]: binds

B11: selected anti-SARS-CoV-2 spike antibody G12 (antibody, V domains shown)
VH: EVQLVQSGAEVKKPGASVKVSCKVSGYTFSNHAIHWVRQAPGKGLEWMGGINPNIGDTIYAQKFQGRVTMTEDTSTDTAYMELSSLKSEDTAVYYCARDGYGDYRGLYGMDVWGQGTTVTVSS
VL: B4 VL with S30G, T31N, Y32H, G97T
binding result [1]: binds

B12: A2 (antibody, V domains shown)
VH: QVQLVESGAEVKKPGASVKVSCKVSGYSFTDHSIHWVRQAPGKGLEWMGGINPYTGDTIYAQKFQGRVTMTEDTSTDTAYMELSSLKSEDTAVYYCARDGYCSGGSCYSFSGYGMDVWGQGTTVTVS
VL: B4 VL with S30G, T31N, Y32H, A92T, G97T
binding result [2]: binds

B13: selected anti-SARS-CoV-2 spike antibody A10 (antibody, V domains shown)
VH: B11 VH with E1Q, T28S, S30T, N31D, A33S
VL: B4 VL with Q27R, S30N, T31K, A50G, S51E, N53S, L54R, S56A, G97T
binding result [1]: binds

B14: selected anti-SARS-CoV-2 spike antibody G4 (antibody, V domains shown)
VH: B11 VH with E1Q, F29L, N31D, N54Y, I55T, G102D, D103F, Y104W, R105S, L107S
VL: B4 VL with S30G, T31N, Y32H, G97T
binding result [1]: binds

B15: selected anti-SARS-CoV-2 spike antibody G5 (antibody, V domains shown)
VH: B8 VH
VL: B1 VL with G30S, N31H, G50D, I53L, E55A, S56T, V58I, Q89H, S92A, F94Y
binding result [1]: binds

B16: selected anti-SARS-CoV-2 spike antibody C4 (antibody, V domains shown)
VH: EVQLVQSGAEVKKPGASVKVSCKVSGYSFTDHSIHWVRQAPGKGLEWMGGINPYTGDTIYAQKFQGRVTMTEDTSTDTAYMELSSLKSEDTAVYYCARDGYSGYDYGSVGRDYYYYGMDVWGQGTTVTVSS
VL: B4 VL with S30G, T31N, Y32H, G97T
binding result [1]: binds

B17: G8 (antibody, V domains shown)
VH: B4 VH with Q6E, K98R
VL: B4 VL with D28S, S30G, T31S, Y32F, G97T
binding result [2]: binds

B18: selected anti-SARS-CoV-2 spike antibody C2 (antibody, V domains shown)
VH: QVQLVQSGAEVKKPGASVKVSCKASGYTSPATIHWVRQAPGKGLEWMGGISPYKGDTIYAQKFQGRVTMTEDTSTDTAYMELSSLKSEDTAVYYCARDAYSSSYYYGMDVWGQGTTVTVSS
VL: B4 VL with Q27E, T31K, A50G, S51A, A55H, S56T, G97T
binding result [1]: binds

B19: selected anti-SARS-CoV-2 spike antibody G6 (antibody, V domains shown)
VH: B7 VH with Q6E, S102P, Y104D, V105Y, E106S, M108L, T116L
VL: B4 VL with D28P, T31S, A50E, S51A, N53K, A55Q, G97T
binding result [1]: binds

B20: selected anti-SARS-CoV-2 spike antibody F7 (antibody, V domains shown)
VH: QVQLVQSGAEVKKPGASVKVSCKVSGYSFSTYTIHWVRQAPGKGLEWMGGINPYTGDTIYAQKFQGRVTMTEDTSTDTAYMELSSLKSEDTAVYYCARDGYSGYESSYYYYGMDVWGQGTTVTVSS
VL: B4 VL with S30G, T31N, Y32H, G97T
binding result [1]: binds

B21: selected anti-SARS-CoV-2 spike antibody B11 (antibody, V domains shown)
VH: EVQLVQSGAEVKKPGASVKVSCKVSGYSFTDHSIHWVRQAPGKGLEWMGGINPYTGDTIYAQKFQGRVTMTEDTSTDTAYMELSSLKSEDTAVYYCARDAYPYYYGMDVWGQGTTVTVSS
VL: B4 VL with S30G, T31N, Y32H, G97T
binding result [1]: binds

B22: selected anti-SARS-CoV-2 spike antibody D3 (antibody, V domains shown)
VH: B11 VH with T28S, S30A, N31D, H32Y, G102D, D103F, Y104W, R105S, L107S
VL: B1 VL with G50A, A51S, I53N, R54L, E55A, A93E, F94Y
binding result [1]: binds

B23: selected anti-SARS-CoV-2 spike antibody B7 (antibody, V domains shown)
VH: B4 VH with E1Q, Y54N, T55I
VL: B4 VL with S30G, T31N, Y32H, G97T
binding result [1]: binds

B24: selected anti-SARS-CoV-2 spike antibody H2 (antibody, V domains shown)
VH: B9 VH with S31R, Y32S, A33T, T52N, P53A, Y54G, N55T, A56G, T116L
VL: B4 VL with D28G, T31D, Y32F, A50G, S51A, L54R, S56T, G97T
binding result [1]: binds

B25: selected anti-SARS-CoV-2 spike antibody B3 (antibody, V domains shown)
VH: EVQLVQSGAEVKKPGASVKVSCKVSGYTSPATIHWVRQAPGKGLEWMGGISPYKGDTIYAQKFQGRVTMTEDTSTDTAYMELSSLKSEDTAVYYCAKDSYYYDSSGSGLGGGFDYWGQGTLVTVSS
VL: B4 VL with S30G, T31N, Y32H, G97T
binding result [1]: binds
